Data set [1] deals with T1, Tau441 (2N4R tau) (Homo sapiens, UniProt P10636-8 P10636-8:1-441). Kind of data set: dot blot, 250 nM. The settings on record: tags: N-terminal His-tag, SignalChem (biotin-labelled for functional SELEX and BLI); label: FAM. As for the experimental part: (§1) FIG. 38A is the flow cytometry results analyzing primary binding between aptamer candidates and Tau 441. FIG. 38B is a dot blot assay showing aptamer binding specificity. FIG. 38A Primary binding analysis between aptamer candidates and Tau 441. FIG. 38B Aptamers binding specificity by dot blot assay. The nitrocellulose membranes were socked in methanol until becoming wet (1 min) then the membranes were washed with PBST solution for 5 mins. BSA, Casein, IgG, Tau and P-Tau (1 μg per protein) were respectively immobilized as striped dots on the NC membranes by air-drying. The membranes were blocked with 1% fat-free milk in PBST for 1 hour and incubated with heat-denatured aptamers (250 nM) labeled with FAM for 1 hour at room temperature. Control DNA were random sequence DNA with FAM label. The membranes were washed three times with TBST. Dots were scanned by Typhoon Imaging System (Amersham Biosciences).
T1 sequence (P10636 other isoform, or with tags, fused parts or gaps): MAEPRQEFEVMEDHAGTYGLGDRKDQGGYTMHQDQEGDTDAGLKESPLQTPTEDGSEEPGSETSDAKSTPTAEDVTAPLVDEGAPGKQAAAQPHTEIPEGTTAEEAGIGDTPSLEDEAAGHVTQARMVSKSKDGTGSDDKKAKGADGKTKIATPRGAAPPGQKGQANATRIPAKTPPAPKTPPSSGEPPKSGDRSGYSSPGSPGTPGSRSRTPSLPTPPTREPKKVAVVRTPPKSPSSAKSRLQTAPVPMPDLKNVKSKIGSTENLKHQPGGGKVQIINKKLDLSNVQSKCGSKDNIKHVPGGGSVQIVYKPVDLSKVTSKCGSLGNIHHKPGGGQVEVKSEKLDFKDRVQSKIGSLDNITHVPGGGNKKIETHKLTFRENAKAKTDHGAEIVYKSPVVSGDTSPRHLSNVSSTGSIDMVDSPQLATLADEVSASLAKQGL
(§2) The preliminary investigation of binding ability between aptamers and Tau441 was validated by flow cytometry. […] Furthermore, the binding specificity of the selected tau aptamers to full-length Tau441 protein was confirmed by dot blotting by incubating each of the FAM-labeled aptamers with nitrocellulose membranes which have already been immobilized with either target Tau441 protein or nontarget proteins (FIG. 38B). […] No cross-reactivity was observed between the aptamers and the nontarget proteins, including: α casein, β casein, BSA (bovine serum albumin), and IgG (immunoglobin G). Particularly, the membranes were blocked by milk after immobilizing with each protein which further illustrated the strong specificity of the obtained aptamers.

The target in data set [2] is T2, Bovine serum albumin (BSA) (Bos taurus, UniProt P02769 P02769:25-607). Kind of data set: dot blot. Here is the method: as §1, §2
T2 sequence (P02769 25-607, one chain of several): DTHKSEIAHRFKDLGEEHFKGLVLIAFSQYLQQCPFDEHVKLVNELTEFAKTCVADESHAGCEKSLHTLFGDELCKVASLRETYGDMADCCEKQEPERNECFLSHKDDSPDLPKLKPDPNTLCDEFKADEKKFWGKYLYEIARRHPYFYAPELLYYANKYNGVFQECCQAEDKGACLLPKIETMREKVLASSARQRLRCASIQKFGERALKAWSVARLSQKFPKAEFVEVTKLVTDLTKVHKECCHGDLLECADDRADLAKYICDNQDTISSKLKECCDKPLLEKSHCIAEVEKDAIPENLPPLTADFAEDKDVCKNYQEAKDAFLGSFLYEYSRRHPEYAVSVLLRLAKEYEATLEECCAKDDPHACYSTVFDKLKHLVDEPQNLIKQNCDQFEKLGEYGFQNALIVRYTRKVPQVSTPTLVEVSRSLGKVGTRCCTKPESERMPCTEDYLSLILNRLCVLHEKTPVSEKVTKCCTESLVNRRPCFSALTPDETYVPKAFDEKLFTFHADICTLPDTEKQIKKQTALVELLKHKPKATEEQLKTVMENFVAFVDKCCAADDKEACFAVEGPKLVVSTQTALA
For data set [3], the target named is T1, Tau441 (2N4R tau). Kind of data set: dot blot, 250 nM; best flow cytometry shift; Kd only in figure. The settings on record: tags: N-terminal His-tag, SignalChem (biotin-labelled for functional SELEX and BLI); label: FAM or 5' Cy5. Here is the method: as §1
The preliminary investigation of binding ability between aptamers and Tau441 was validated by flow cytometry. […] Furthermore, the binding specificity of the selected tau aptamers to full-length Tau441 protein was confirmed by dot blotting by incubating each of the FAM-labeled aptamers with nitrocellulose membranes which have already been immobilized with either target Tau441 protein or nontarget proteins (FIG. 38B). […]
In general terms: A flow cytometer gives signals particle by particle.

Data set [4] deals with T1, Tau441 (2N4R tau). Kind of data set: EMSA; 400 nM aptamer, 0.2 mg/mL protein, 4 C. The settings on record: tags: N-terminal His-tag, SignalChem (biotin-labelled for functional SELEX and BLI). Here is the method: (§3) To determine the specificity of the circular aptamer against Tau441 protein, 5 μL of 400 nM Tau (IT2a) aptamer or circular aptamer were first incubated with 0.2 mg/mL target Tau441 protein or control proteins (S100B, BSA) at 4° C. for 30 minutes. Then, each sample was loaded onto an 8% native PAGE gel. The gel was run in 1×TBE at 70 V for 10 minutes and 150 V for 40 minutes. Finally, the gel was stained with Coomassie blue for protein detection and scanned in the fluorescein channel using Typhoon for aptamer detection.
(§4) After interaction, each sample was loaded onto the nondenaturing gel for protein detection with Coomassie Brilliant Blue staining (FIG. 13A) and aptamer fluorescence (FIG. 13B) detection. […] Five microliters of 400 nM Tau (IT2a) aptamer or circular aptamer was first incubated with 0.2 mg/mL target Tau441 protein or control proteins at 4° C. for 30 minutes. […] For FIG. 13A and FIG. 13 B, Lanes 1 and 6: Ladder; Lane 2: IT2a aptamer; Lane 3: IT2a aptamer+Tau441 (67 kDa); Lane 4: IT2a aptamer+S100B (9 kDa); Lane 5: IT2a aptamer+BSA (66 kDa); Lane 7: Circular aptamer; Lane 8: Circular aptamer+Tau411 (67 kDa); Lane 9: Circular aptamer+S100B (9 kDa); Lane 10: Circular aptamer+BSA (66 kDa).

The target of data set [5] is T2, Bovine serum albumin (BSA). Kind of data set: EMSA; profile stated same as circular aptamer. Particulars: label: FITC-dT near 3' end; hairpin. Here is the method:
as §3, §4
Background: Mobility shift assays separate free from complexed probe on a gel.

Data set [6] addresses T2, Bovine serum albumin (BSA). Kind of data set: EMSA; specificity control. The settings on record: label: one or two FITC-dT. Here is the method: as §3, §4
Data set [7] has as its target T1, Tau441 (2N4R tau). Kind of data set: dot blot, 100 nM; stronger than BW1, BW1a, BW1b. Particulars: tags: N-terminal His-tag, SignalChem (biotin-labelled for functional SELEX and BLI); label: 5' Cy5.
Protocol: The nitrocellulose membranes were socked in methanol till it becomes wet (1 min) then the membranes were washed with TBST solution for 5 mins. Tau protein (stripped band 0.5 μg) were dripped on the NC membranes in every dot and then waited to dry (2 mins). The membranes were blocked with 1% fat-free milk in TBST for 1 hour and were respectively incubated with series of heat denatured aptamers (250 nM) for 1 hour in blocking buffer (contain 0.5 mM Mg²⁺) at room temperature. Next the membrane was washed for three times by TBST, 5 min for each time. Dots were scanned simultaneously by a Typhoon Imaging System (Amersham Biosciences).

B1: BW5 (ssDNA)
DNA: TCACCTGAGACTTGACGATGGTACGACGGCCCCCCGATTATGCGACTACTTGATTTGAGTGCTATCGTCTGTCCA
In the case of B1, the results for the binding result in data set [1] and in data set [2] (label: FAM) were “binds” and “no binding”, respectively.

B2: BW3 (ssDNA)
DNA: TCACCTGAGACTTGACGATGGAACTCCCCCCACCATTATCAGCGCACCACCATTGTAGAGTGCTATCGTCTGTCCA
For the molecule B2, the results for the binding result in data set [1] and in data set [2] (label: FAM) were “binds” and “no binding”, respectively.

B3: BW8 (ssDNA)
DNA: TCACCTGAGACTTGACGATGGCACTACCCCTCCCTACTAAGCACGGTATCTTGTACTGAGTGCTATCGTCTGTCCA
Consider B3, for which the binding result in data set [1] was “binds”; in data set [2] (label: FAM), “no binding”.

B4: BW6 (ssDNA)
DNA: TCACCTGAGACTTGACGATGGTCAGAACGACGCGCCCCCCACCTCATTCATTATTTTGAGTGCTATCGTCTGTCCA
As to B4, the binding result in data set [1] is reported as “binds”; in data set [2] (label: FAM), “no binding”.

B5: BW7 (ssDNA)
DNA: TCACCTGAGACTTGACGATGGTGACCACCCCCCACGCACACACACCTCTTCCATCCTGAGTGCTATCGTCTGTCCA
On to B5, for which the binding result in data set [1] is “binds”; in data set [2] (label: FAM) it was “no binding”.

B6: BW2 (ssDNA)
DNA: TCACCTGAGACTTGACGATGGCCTCCCCCTCACGCACTCTTCCGTTTCTTCTTATCTGAGTGCTATCGTCTGTCCA
Consider B6, for which the binding result was “binds” in data set [1] and “no binding” in data set [2] (label: FAM).

B7: BW9 (ssDNA)
DNA: TCACCTGAGACTTGACGATGGGAACAAACACCGCGACCACCCCCCCACTTAACTCCTGAGTGCTATCGTCTGTCCA
As for B7, the binding result in data set [1] is “binds”; in data set [2] (label: FAM), “no binding”.

B8: BW4 (ssDNA)
DNA: TCACCTGAGACTTGACGATGGTTTAACTCCCCCACGCCCCCCGCCAACCCATCTCCAGAGTGCTATCGTCTGTCCA
In the case of B8, the binding result in data set [1] is on record as “binds”; in data set [2] (label: FAM) it was “no binding”.

B9: BW1 (ssDNA)
DNA: TCACCTGAGACTTGACGATGGCATCACTCCCCCCCACCTATTACATCATCATAAATTGAGTGCTATCGTCTGTCCA
As for B9, the binding result is “binds” in data set [3] and “no binding” in data set [2] (label: FAM or 5' Cy5).

B10: IT2a Tau aptamer (13-base extended) (ssDNA)
DNA: TGACTGATTTACGGAAGCTGAATAAGGACTGCTTAGGATTGCGATGATTCAGCTTC
As for B10, the binding result in data set [4] (label: FITC-dT near 3' end, hairpin) is reported as “binds”; in data set [5], “no binding”.

B11: Circular Tau-TfR bispecific aptamer (structured_DNA)
DNA: TGACTGATTTACGGAAGCTGAATAAGGACTGCTTAGGATTGCGATGATTCAGCTTCCGTAAATCAGTCAGAAGGCGTGGTACCACGCTTTC
As to B11, the binding result was “binds” in data set [4] (label: one or two FITC-dT) and “no binding” in data set [6].

B12: BW1c (ssDNA)
DNA: GACGATAGCATCACTCCCCCCCACCTATTACATCATCATAAATTGAGTGCTATCGTC
On to B12, for which the binding result in data set [7] is “binds”.

B13: BW10 (ssDNA)
DNA: TCACCTGAGACTTGACGATGGCAATCCCCCCGACACCGAATCCTAAGCGAACAACGCGAGTGCTATCGTCTGTCCA
On to B13, for which the binding result was “binds” in data set [1] and “no binding” in data set [2] (label: FAM).
